This note sets out measurements from US20120244144A1 (University of Texas, published 2012).

In general, koff refers to the rate constant with which the complex falls apart. For orientation: Kd means the constant that tells how readily two partners part at equilibrium.

One assay deals with T1, PTx-S1A (1-220) (Bordetella pertussis, UniProt P04977 36-255, M194I).
T1 sequence: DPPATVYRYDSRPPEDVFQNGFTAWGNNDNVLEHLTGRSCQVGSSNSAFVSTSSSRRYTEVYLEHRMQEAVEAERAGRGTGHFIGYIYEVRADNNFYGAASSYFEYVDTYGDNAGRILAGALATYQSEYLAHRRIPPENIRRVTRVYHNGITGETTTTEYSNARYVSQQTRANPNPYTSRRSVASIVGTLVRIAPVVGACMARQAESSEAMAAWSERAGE
Nature of the assay: SPR BIAcore 3000, mAb 1B7 immobilised ~1000 RU. On the technique in general: In SPR one partner is held on a chip, and binding of the other changes the refractive index at the surface.

Another assay deals with T2, PTx-S1D (1-220) (Bordetella pertussis, UniProt P04977 35-254).
T2 chain: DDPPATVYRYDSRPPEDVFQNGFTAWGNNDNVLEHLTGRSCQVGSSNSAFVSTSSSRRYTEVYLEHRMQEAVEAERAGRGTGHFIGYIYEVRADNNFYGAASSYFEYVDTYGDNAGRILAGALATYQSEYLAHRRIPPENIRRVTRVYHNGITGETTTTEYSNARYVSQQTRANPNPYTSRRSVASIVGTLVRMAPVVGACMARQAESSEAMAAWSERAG
The assay is described as follows: SPR BIAcore 3000, mAb 1B7 immobilised ~1000 RU.

The target in a further assay is T3, PTx-S1 9K/129G (1-220) (Bordetella pertussis, UniProt P04977 36-255, R9K; E129G).
T3 construct: also called R9K, E129G variant
T3 sequence: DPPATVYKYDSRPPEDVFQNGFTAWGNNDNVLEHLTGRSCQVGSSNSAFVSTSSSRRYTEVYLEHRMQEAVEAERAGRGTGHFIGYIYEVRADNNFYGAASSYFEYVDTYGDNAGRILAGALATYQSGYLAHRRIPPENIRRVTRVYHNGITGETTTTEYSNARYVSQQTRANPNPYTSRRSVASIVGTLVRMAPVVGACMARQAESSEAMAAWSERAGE
Nature of the assay: SPR BIAcore 3000, mAb 1B7 immobilised ~1000 RU.

A further assay has as its target T4, PTx-S1-220 N150A (Bordetella pertussis strain Tohama I, UniProt P04977 36-255, N150A).
T4 sequence: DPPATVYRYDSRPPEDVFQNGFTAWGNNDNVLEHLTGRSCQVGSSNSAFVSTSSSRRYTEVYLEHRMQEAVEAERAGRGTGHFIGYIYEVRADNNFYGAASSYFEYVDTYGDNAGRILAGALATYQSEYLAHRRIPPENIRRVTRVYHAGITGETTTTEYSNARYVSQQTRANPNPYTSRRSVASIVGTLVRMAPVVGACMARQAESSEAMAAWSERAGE
The assay is described as follows: SPR, mAb 1B7 immobilised ~1000 RU.

The next assay addresses T5, PTx-S1-220 R146A (Bordetella pertussis strain Tohama I, UniProt P04977 36-255, R146A).
T5 sequence: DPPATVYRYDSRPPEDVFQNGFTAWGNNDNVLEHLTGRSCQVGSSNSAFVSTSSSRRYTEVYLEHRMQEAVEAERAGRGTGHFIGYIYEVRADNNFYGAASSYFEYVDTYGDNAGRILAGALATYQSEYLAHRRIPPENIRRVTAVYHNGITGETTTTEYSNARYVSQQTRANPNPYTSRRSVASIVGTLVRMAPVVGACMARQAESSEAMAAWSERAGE
The assay is described as follows: SPR, mAb 1B7 immobilised ~1000 RU.

The target of another assay is T6, PTx-S1-220 T156A (Bordetella pertussis strain Tohama I, UniProt P04977 36-255, T156A).
T6 sequence: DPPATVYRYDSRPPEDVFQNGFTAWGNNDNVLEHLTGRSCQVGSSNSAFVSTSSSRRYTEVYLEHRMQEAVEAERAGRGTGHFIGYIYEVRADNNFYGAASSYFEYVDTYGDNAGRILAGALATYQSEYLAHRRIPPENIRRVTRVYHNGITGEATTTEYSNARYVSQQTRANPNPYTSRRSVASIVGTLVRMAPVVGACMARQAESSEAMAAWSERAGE
Nature of the assay: SPR, mAb 1B7 immobilised ~1000 RU.

The target of a further assay is T7, PTx-S1-220 H83A (Bordetella pertussis strain Tohama I, UniProt P04977 36-255, H83A).
T7 sequence: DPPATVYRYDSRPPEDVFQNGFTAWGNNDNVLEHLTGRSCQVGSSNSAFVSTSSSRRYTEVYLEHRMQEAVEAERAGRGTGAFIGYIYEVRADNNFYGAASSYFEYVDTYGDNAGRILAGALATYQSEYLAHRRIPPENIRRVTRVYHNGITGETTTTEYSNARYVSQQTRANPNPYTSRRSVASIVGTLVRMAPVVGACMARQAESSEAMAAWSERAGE
Nature of the assay: SPR, mAb 1B7 immobilised ~1000 RU.

The next assay addresses T8, PTx-S1-220 Y161A (Bordetella pertussis strain Tohama I, UniProt P04977 36-255, Y161A).
T8 sequence: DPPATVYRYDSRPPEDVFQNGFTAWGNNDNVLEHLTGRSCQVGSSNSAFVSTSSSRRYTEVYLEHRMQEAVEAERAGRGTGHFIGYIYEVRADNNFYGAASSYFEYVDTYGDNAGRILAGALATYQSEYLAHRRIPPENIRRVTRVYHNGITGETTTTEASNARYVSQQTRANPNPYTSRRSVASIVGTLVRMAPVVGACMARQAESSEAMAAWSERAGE
The assay is described as follows: SPR, mAb 1B7 immobilised ~1000 RU.

A further assay concerns the target T9, PTx-S1-220 N176A (Bordetella pertussis strain Tohama I, UniProt P04977 36-255).
T9 chain: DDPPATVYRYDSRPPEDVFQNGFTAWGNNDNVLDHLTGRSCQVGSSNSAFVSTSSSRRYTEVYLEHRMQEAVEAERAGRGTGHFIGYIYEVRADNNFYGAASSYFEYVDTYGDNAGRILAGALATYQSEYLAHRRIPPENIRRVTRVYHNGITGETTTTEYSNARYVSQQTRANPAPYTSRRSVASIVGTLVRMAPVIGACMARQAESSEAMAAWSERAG
The assay is described as follows: SPR, mAb 1B7 immobilised ~1000 RU.

The target of assay [1] is pertussis toxin holotoxin (Bordetella pertussis), P04977. The assay is described as follows: competition ELISA (Friguet), 5 nM antibody, soluble PT. Conditions: remark: other sources report otherwise. In general terms: An ELISA detects its analyte on a solid surface through an enzyme-linked reagent.
Assay [2] addresses PTx-S1-220, truncated recombinant S1 subunit (residues 1-220) (Bordetella pertussis strain Tohama I), P04977. Nature of the assay: SPR, mAb 1B7 immobilised ~1000 RU. Conditions: remark: other sources report otherwise.

B1: monoclonal antibody 1B7 (antibody)
chain: DIQMTQSPALMSASPGEKVTMTCSASSSVSFMYWYQQKPRSSPKPWIYLTSNLPSGVPARFSGSGSGTSYSLTISSMEAEDAATYYCQQWSSHPPTFGSGTKLEIKRGGGGSGGGGSGGGGSGGGGSEVQLQQSGSELVRPGASVKLSCKASGYKFTSYWMHWVKQRPGQGLEWIGNIFPGSGSTNYDEKFNSKATLTVDTSSNTAYMQLSSLTSEDSAVYYCTRWLSGAYFDYWGQGTTLTVSSASGA
notes: also called mAb 1B7; 1B7 mAb
Regarding B1, the off-rate constant (koff) worked out at 0.00071 s⁻¹ with PTx-S1A (1-220); 0.00095 s⁻¹ with PTx-S1D (1-220); 0.0016 s⁻¹ in the assay with PTx-S1 9K/129G (1-220); 0.008 s⁻¹ with PTx-S1-220 N150A; 0.0015 s⁻¹ with PTx-S1-220 R146A; 0.0011 s⁻¹ with PTx-S1-220 T156A. Moreover, the off-rate (koff) with PTx-S1-220 H83A was found to be 0.01 s⁻¹; with PTx-S1-220 Y161A, 0.0013 s⁻¹; in the assay with PTx-S1-220 N176A it was 0.0011 s⁻¹; in assay [2], 0.0014 s⁻¹. The molecule also came in with a Kd in [1] of 1.1 nM.
